Measurements as given in publication PMC4018761.

Key:
[1] = molecular target: GST-E2 300-360 (Epstein-Barr virus) (UniProt P12978); test: pull-down
[2] = molecular target: GST-E2 335-360 (Epstein-Barr virus) (UniProt P12978); test: pull-down

**Q.** Which percent of endogenous PRMT5 pulled down [1] does the source give for “endogenous PRMT5 (protein arginine methyltransferase 5) (from UniProt O14744 1-637) (enzyme)” here?
**A.** 5%

**Q.** What about the percent of endogenous PRMT5 pulled down [2] of the same substance?
**A.** 5%
